± gives the uncertainty stated by the source.
B1: POU domain, class 3, transcription factor 2, residues 262 to 338; numbered along this chain, P20265 (parent)
chain: EDTPTSDDLEQFAKQFKQRRIKLGFTQADVGLALGTLYGNVFSQTTICRFEALQLSFKNMCKLKPLLNKWLEEADSS

Variants of: B1
Assay: abundance fitness (aPCA) (normalised: wild type 0, dead -1); higher = more abundant; growth selection in yeast, the domain comes from the species named
Details: Homo sapiens

Variant	abundance fitness
EDTPTSDDLEQFAKQFKQRRIKLGFTQADVGLALGTLYGNVFSQTTICRFEALQLSFKNMCKLMPLLNKWLEEADSS [K64M]	-0.06 ± 0.05
EDTPTSDDLEQFAKQFKQRRIKLGFTQADVGLALGTLYGNVFSQTTICRFEALQLSFKNMCKLSPLLNKWLEEADSS [K64S]	-0.226 ± 0.042
EDTPTSDDLEQFAKQFKQRRIKLGFTQADVGLALGTLYGNVFSQTTICRFEALQLSFKNMCKLYPLLNKWLEEADSS [K64Y]	-0.019 ± 0.068
EDTPTSDDLEQFAKQFKQRRIKLGFTQADVGLALGTLYGNVFSQTTICRFEALQLSFKNMCKLQPLLNKWLEEADSS [K64Q]	-0.067 ± 0.045
EDTPTSDDLEQFAKQFKQRRIKLGFTQADVGLALGTLYGNVFSQTTICRFEALQLSFKNMCKLHPLLNKWLEEADSS [K64H]	-0.051 ± 0.074
EDTPTSDDLEQFAKQFKQRRIKLGFTQADVGLALGTLYGNVFSQTTICRFEALQLSFKNMCKLPPLLNKWLEEADSS [K64P]	-0.931 ± 0.19
EDTPTSDDLEQFAKQFKQRRIKLGFTQADVGLALGTLYGNVFSQTTICRFEALQLSFKNMCKLLPLLNKWLEEADSS [K64L]	-0.131 ± 0.037
EDTPTSDDLEQFAKQFKQRRIKLGFTQADVGLALGTLYGNVFSQTTICRFEALQLSFKNMCKLAPLLNKWLEEADSS [K64A]	-0.06 ± 0.035
EDTPTSDDLEQFAKQFKQRRIKLGFTQADVGLALGTLYGNVFSQTTICRFEALQLSFKNMCKLRPLLNKWLEEADSS [K64R]	-0.092 ± 0.031
EDTPTSDDLEQFAKQFKQRRIKLGFTQADVGLALGTLYGNVFSQTTICRFEALQLSFKNMCKLDPLLNKWLEEADSS [K64D]	-1.06 ± 0.23
EDTPTSDDLEQFAKQFKQRRIKLGFTQADVGLALGTLYGNVFSQTTICRFEALQLSFKNMCKLFPLLNKWLEEADSS [K64F]	-0.264 ± 0.1
EDTPTSDDLEQFAKQFKQRRIKLGFTQADVGLALGTLYGNVFSQTTICRFEALQLSFKNMCKLIPLLNKWLEEADSS [K64I]	-0.246 ± 0.083
EDTPTSDDLEQFAKQFKQRRIKLGFTQADVGLALGTLYGNVFSQTTICRFEALQLSFKNMCKLNPLLNKWLEEADSS [K64N]	-0.944 ± 0.26
EDTPTSDDLEQFAKQFKQRRIKLGFTQADVGLALGTLYGNVFSQTTICRFEALQLSFKNMTKLKPLLNKWLEEADSS [C61T]	-0.182 ± 0.045
EDTPTSDDLEQFAKQFKQRRIKLGFTQADVGLALGTLYGNVFSQTTICRFEALQLSFKNMVKLKPLLNKWLEEADSS [C61V]	-0.035 ± 0.03
EDTPTSDDLEQFAKQFKQRRIKLGFTQADVGLALGTLYGNVFSQTTICRFEALQLSFKNMRKLKPLLNKWLEEADSS [C61R]	-0.025 ± 0.028
EDTPTSDDLEQFAKQFKQRRIKLGFTQADVGLALGTLYGNVFSQTTICRFEALQLSFKNMWKLKPLLNKWLEEADSS [C61W]	-0.158 ± 0.03
EDTPTSDDLEQFAKQFKQRRIKLGFTQADVGLALGTLYGNVFSQTTICRFEALQLSFKNMYKLKPLLNKWLEEADSS [C61Y]	-0.252 ± 0.077

Variant	abundance fitness
EDTPTSDDLEQFAKQFKQRRIKLGFTQADVGLALGTLYGNVFSQTTICRFEALQLSFKNMSKLKPLLNKWLEEADSS [C61S]	-0.165 ± 0.034
EDTPTSDDLEQFAKQFKQRRIKLGFTQADVGLALGTLYGNVFSQTTICRFEALQLSFKNMCALKPLLNKWLEEADSS [K62A]	-0.033 ± 0.032
EDTPTSDDLEQFAKQFKQRRIKLGFTQADVGLALGTLYGNVFSQTTICRFEALQLSFKNMCCLKPLLNKWLEEADSS [K62C]	-0.25 ± 0.053
EDTPTSDDLEQFAKQFKQRRIKLGFTQADVGLALGTLYGNVFSQTTICRFEALQLSFKNMCTLKPLLNKWLEEADSS [K62T]	-0.059 ± 0.039
EDTPTSDDLEQFAKQFKQRRIKLGFTQADVGLALGTLYGNVFSQTTICRFEALQLSFKNMCSLKPLLNKWLEEADSS [K62S]	-0.055 ± 0.032
EDTPTSDDLEQFAKQFKQRRIKLGFTQADVGLALGTLYGNVFSQTTICRFEALQLSFKNMCELKPLLNKWLEEADSS [K62E]	0.006 ± 0.038
EDTPTSDDLEQFAKQFKQRRIKLGFTQADVGLALGTLYGNVFSQTTICRFEALQLSFKNMCPLKPLLNKWLEEADSS [K62P]	-0.99 ± 0.15
EDTPTSDDLEQFAKQFKQRRIKLGFTQADVGLALGTLYGNVFSQTTICRFEALQLSFKNMCMLKPLLNKWLEEADSS [K62M]	0.02 ± 0.048
EDTPTSDDLEQFAKQFKQRRIKLGFTQADVGLALGTLYGNVFSQTTICRFEALQLSFKNMCGLKPLLNKWLEEADSS [K62G]	-0.189 ± 0.027
EDTPTSDDLEQFAKQFKQRRIKLGFTQADVGLALGTLYGNVFSQTTICRFEALQLSFKNMCVLKPLLNKWLEEADSS [K62V]	-0.089 ± 0.031
EDTPTSDDLEQFAKQFKQRRIKLGFTQADVGLALGTLYGNVFSQTTICRFEALQLSFKNMCNLKPLLNKWLEEADSS [K62N]	-0.151 ± 0.068
EDTPTSDDLEQFAKQFKQRRIKLGFTQADVGLALGTLYGNVFSQTTICRFEALQLSFKNMCWLKPLLNKWLEEADSS [K62W]	-0.172 ± 0.038
EDTPTSDDLEQFAKQFKQRRIKLGFTQADVGLALGTLYGNVFSQTTICRFEALQLSFKNMCFLKPLLNKWLEEADSS [K62F]	-0.126 ± 0.086
EDTPTSDDLEQFAKQFKQRRIKLGFTQADVGLALGTLYGNVFSQTTICRFEALQLSFKNMCILKPLLNKWLEEADSS [K62I]	-0.045 ± 0.077
EDTPTSDDLEQFAKQFKQRRIKLGFTQADVGLALGTLYGNVFSQTTICRFEALQLSFKNMCDLKPLLNKWLEEADSS [K62D]	-0.045 ± 0.053
EDTPTSDDLEQFAKQFKQRRIKLGFTQADVGLALGTLYGNVFSQTTICRFEALQLSFKNMCYLKPLLNKWLEEADSS [K62Y]	-0.263 ± 0.07
EDTPTSDDLEQFAKQFKQRRIKLGFTQADVGLALGTLYGNVFSQTTICRFEALQLSFKNMCHLKPLLNKWLEEADSS [K62H]	-0.156 ± 0.06
EDTPTSDDLEQFAKQFKQRRIKLGFTQADVGLALGTLYGNVFSQTTICRFEALQLSFKNMCLLKPLLNKWLEEADSS [K62L]	-0.007 ± 0.036

Source: the Human Domainome abundance scans (Beltran et al. 2025)
